T1: human BCMA (B-cell maturation antigen) on cells (human, UniProt Q02223 1-184)
T1 construct: whole, on cells; also called hBCMA; hBCMA/HEK293 cell line
T1 sequence (looked up): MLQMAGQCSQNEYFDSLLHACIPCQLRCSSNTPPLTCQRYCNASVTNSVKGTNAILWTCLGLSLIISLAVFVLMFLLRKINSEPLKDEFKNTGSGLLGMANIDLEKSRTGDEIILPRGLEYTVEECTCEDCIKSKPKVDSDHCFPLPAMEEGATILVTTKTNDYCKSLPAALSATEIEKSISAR

T2: BCMA peptide 30SNTPPLTCQR39 (human)
T2 construct: Peptide of the CLIPS library; recognised in a linear form
T2 peptide: SNTPPLTCQR

T3: human BCMA amino acid residues 1-54 (linear and conformational CLIPS peptide libraries) (human, UniProt Q02223 1-54)
T3 sequence: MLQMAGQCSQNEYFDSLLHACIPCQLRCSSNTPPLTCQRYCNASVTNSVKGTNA

B1: BCMA-1 anti-BCMA scFv (scFv)
scFv: QVQLVQSGGGLVQPGRSLRLSCTASGFTFGDYAMSWFRQAPGKGLEWVGFIRSKAYGGTTEYAASVKGRFTISRDDSKSIAYLQMNSLKTEDTAVYYCAAWSAPTDYWGQGTLVTVSSGGGGSGGGGSGGGGSDIVMTQSPDSLSVSPGERATISCKSSQSVLSTSNNKNYLAWYQQKPGQPPRLLLYWASTREAGVPDRFSGSGSGTDFTLTISSLQAEDVAVYYCQQYFSSPYTFGHGTKLEIK
notes: VH-(G4S)3-VL scFv
B2: BCMA-5 anti-BCMA scFv (scFv)
scFv: QVQLVQSGGGLVQPGRSLRLSCTASGFTFGDYAMSWFRQAPGKGLEWVGFIRSKAYGGTTEYAASVKGRFTISRDDSKSIAYLQMNSLKTEDTAVYYCAAWSAPTDYWGQGTLVTVSSGGGGSGGGGSGGGGSDIVMTQSPDSLAVSLGERATINCKSSQSVLYSSNNKNYLAWYQQKPGQPPKLLIYWASTRESGVPDRFSGSGSGTDFTLTISSLQAEDVAVYYCQQYYSTPWTFGQGTKVDIK
notes: VH-(G4S)3-VL scFv
B3: BCMA-23 anti-BCMA scFv (scFv)
scFv: EVQLVESGGGLVKPGGSLRLSCAASGFTFSDYYMSWIRQAPGKGLEWVSYISSSGSTIYYADSVKGRFTISRDNAKNSLYLQMNSLRAEDTAVYYCAKVDGDYTEDYWGQGTLVTVSSGGGGSGGGGSGGGGSQSALTQPASVSGSPGQSITISCTGSSSDVGKYNLVSWYQQPPGKAPKLIIYDVNKRPSGVSNRFSGSKSGNTATLTISGLQGDDEADYYCSSYGGSRSYVFGTGTKVTVL
notes: BCMA-22 with the first residue of CDR-L3 (cysteine) replaced by serine
B4: BCMA-25 anti-BCMA scFv (scFv)
scFv: EVQLVQSGGGLVQPGRSLRLSCTASGFTFGDYAMSWFRQAPGKGLEWVGFIRSKAYGGTTEYAASVKGRFTISRDDSKSIAYLQMNSLKTEDTAVYYCAAWSAPTDYWGQGTLVTVSSGGGGSGGGGSGGGGSDIQMTQSPAFLSASVGDRVTVTCRASQGISNYLAWYQQKPGNAPRLLIYSASTLQSGVPSRFRGTGYGTEFSLTIDSLQPEDFATYYCQQSYTSRQTFGPGTRLDIK
notes: VH-(G4S)3-VL scFv
B5: BCMA-26 anti-BCMA scFv (scFv)
scFv: EVQLVESGGGLVKPGGSLRLSCAASGFTFSDYYMSWIRQAPGKGLEWVSYISSSGSTIYYADSVKGRFTISRDNAKNSLYLQMNSLRAEDTAVYYCAKVDGPPSFDIWGQGTMVTVSSGGGGSGGGGSGGGGSSYVLTQPPSVSVAPGQTARITCGANNIGSKSVHWYQQKPGQAPMLVVYDDDDRPSGIPERFSGSNSGNTATLTISGVEAGDEADYFCHLWDRSRDHYVFGTGTKLTVL
notes: VH-(G4S)3-VL scFv
B6: BCMA-52-scFv-mFc (Fc fusion)
chain: SYELTQPPSASGTPGQRVTMSCSGTSSNIGSHSVNWYQQLPGTAPKLLIYTNNQRPSGVPDRFSGSKSGTSASLAISGLQSEDEADYYCAAWDGSLNGLVFGGGTKLTVLGSRGGGGSGGGGSGGGGSLEMAEVQLVQSGAEVKKPGESLKISCKGSGYSFTSYWIGWVRQMPGKGLEWMGIIYPGDSDTRYSPSFQGHVTISADKSISTAYLQWSSLKASDTAMYYCARYSGSFDNWGQGTLVTVSS
notes: scFv fused with mouse Fc; The order scFv then Fc follows the label; also called BCMA-52 anti-BCMA scFv; not shown: mouse Fc (mFc)
B7: BCMA-55-scFv-mFc (Fc fusion)
chain: QSALTQPASVSASPGQSIAISCTGTSSDVGWYQQHPGKAPKLMIYEDSKRPSGVSNRFSGSKSGNTASLTISGLQAEDEADYYCSSNTRSSTLVFGGGTKLTVLGSRGGGGSGGGGSGGGGSLEMAEVQLVQSGAEMKKPGASLKLSCKASGYTFIDYYVYWMRQAPGQGLESMGWINPNSGGTNYAQKFQGRVTMTRDTSISTAYMELSRLRSDDTAMYYCARSQRDGYMDYWGQGTLVTVSS
notes: scFv fused with mouse Fc; The order scFv then Fc follows the label; also called BCMA-55 anti-BCMA scFv; not shown: mouse Fc (mFc)
B8: BCMA-16 anti-BCMA scFv (scFv)
scFv: EVQLVQSGPEVKKPGTSVKVSCKASGFTFTSSAMQWVRQARGQRLEWIGWIVVGSGNTNYAQKFQERVTITRDMSTSTAYMELSSLRSEDTAVYYCAAAPYYDILTGYYLWGQGTLVTVSSGGGGSGGGGSGGGGSQSALTQPPSASGTPGQRVTISCSGSGSNIGSNDVSWYQQIPGTAPKLLIYWNDQRPSGVPDRFSGSKSGTSASLAISGLQSEDEADYYCASWDDSLSGWVFGGGTKLTVL
notes: VH-(G4S)3-VL scFv

How the values were obtained:
[1] = molecular target: T1, human BCMA (B-cell maturation antigen) …; experiment: flow cytometry, hBCMA-overexpressing HEK293 compared with OPM2 and RPMI-8226 cells
Description: Binding of exemplary scFv clones to hBMCA-overexpressing HEK293 cells as compared to OPM2 and RPMI-8226 cell lines that express moderate levels of endogenous BCMA was assessed.

[2] = molecular target: T2, BCMA peptide 30SNTPPLTCQR39; experiment: CLIPS peptide array ELISA
Description: (§1) Epitopes recognized, e.g., specifically bound to, by exemplary anti-BCMA scFv clones (BCMA-1, BCMA-5, BCMA-9, BCMA-23, BCMA-25, BCMA-26, BCMA-52 and BCMA-55 anti-BCMA scFvs), were assessed using full discontinuous epitope mapping by Chemical Linkage of Peptides onto Scaffolds (CLIPS; Pepscan Presto BV, Lelystad, The Netherlands; see, e.g., Timmerman et al., (2007) J. Mol. Recognit. 20: 283-329). Mapping was carried out using anti-BCMA scFv clones, such as those fused with mouse Fc (scFv-mFc).
(§2) Linear and conformational peptide libraries of amino acid residues 1-54 of human BCMA (set forth as amino acid residues 1-54 of SEQ ID NO:367) were generated based on a combinatorial matrix design. Linear peptides and structural mimetics including single loop, α-helix, β-turn, combinatorial and linear disulfide bridge mimics, and discontinuous epitope mimics were used, along with positive and negative control peptides, on an amino-functionalized solid support.
(§3) Affinities for binding to the peptides in the epitope library were determined using ELISA. The peptide arrays were incubated with a solution containing the scFv overnight at 4° C. Affinity information was used in iterative screens to define the sequence and conformation of epitopes. Heat maps of affinity information for two or more loops were generated.

[3] = molecular target: T3, human BCMA amino acid residues 1-54 …; experiment: CLIPS peptide array ELISA
Description: as §1, §2, §3

[4] = molecular target: T1, human BCMA (B-cell maturation antigen) …; experiment: flow cytometry on hBCMA-expressing HEK293 cells

Row | Binder | binding result [2] | binding result [3] | other results
1 | B1 | binds | – | binding result [1]: binds
2 | B2 | binds | – | binding result [1]: binds
3 | B3 | binds | – | –
4 | B4 | binds | – | –
5 | B5 | – | binds | –
6 | B6 | – | binds | –
7 | B7 | – | binds | –
8 | B8 | – | – | binding result [4]: no binding

Source: patent US20200392236A1 (JUNO THERAPEUTICS, published 2020)
